{"source": "the supplement of paper PMC11780869"}
{"tested_on": "Bacillus subtilis", "test": "cleaved RNA product abundance (RNA/gDNA barcode ratio) relative to median wild-type variant (ratio to wild type); higher = more accumulation of the downstream cleavage product", "settings": "experiment (reporter, strain, medium): exp 4a: truncated aprE reporter, strain BJT201 with 2% xylose (RNase J1 expressed); cleavage site: cggR-gapA (positions -7 to +36 mutated)", "how_it_was_run": "(§1)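 Truncated aprE or tetM reporter mRNAs with barcoded RNase Y cleavage-site windows, mutagenized from oligos at a 9% error rate, sat in the B. subtilis chromosome. Cells grew in LB at 37°C from OD600 0.0003 to 0.3. Gel-selected cleaved RNA was reverse transcribed and its barcodes sequenced with those from genomic DNA, collapsing by UMI. Cleaved product abundance equals the RNA:gDNA barcode ratio per construct over the median construct with the unmutated site.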"}
{"sequence": "ACAGACGAAGGAGCCGCTAAGAAGTTATTAAGGGACGAATAATCCCTCAATATAAATATCTCTCACTTATTTAAA", "cleaved RNA product abundance": 0.573}
{"sequence": "ACAGACGAAGGAGCCGCTAAGAAGTTATTAAGGGAGGAATAATCCCTCAATATAAATATCTCTCACTTATTTAAA", "cleaved RNA product abundance": 0.993}
{"sequence": "ACAGACGAAGGAGCCGCTAAGAAGTTATTAAGGGATAAATAATCCCTCAATATAAATATCTCTCACTTATTTAAA", "cleaved RNA product abundance": 1.15}
{"sequence": "ACAGACGAAGGAGCCGCTAAGAAGTTATTAAGGGATGAATAAACCCTCAATATAAATATCTCTCACTTATTTAAA", "cleaved RNA product abundance": 0.689}
{"sequence": "ACAGACGAAGGAGCCGCTAAGAAGTTATTAAGGGATGAATAACCCCTCAATATAAATATCTCTCACTTATTTAAA", "cleaved RNA product abundance": 0.437}
{"sequence": "ACAGACGAAGGAGCCGCTAAGAAGTTATTAAGGGATGAATAATACCTCAATATAAATATCTCTCACTTATTTAAA", "cleaved RNA product abundance": 0.15}
{"sequence": "ACAGACGAAGGAGCCGCTAAGAAGTTATTAAGGGATGAATAATCACTCAATATAAATATCTCTCACTTATTTAAA", "cleaved RNA product abundance": 0.129}
{"sequence": "ACAGACGAAGGAGCCGCTAAGAAGTTATTAAGGGATGAATAATCCATCAATATAAATATCTCTCACTTATTTAAA", "cleaved RNA product abundance": 0.186}
{"sequence": "ACAGACGAAGGAGCCGCTAAGAAGTTATTAAGGGATGAATAATCCCACAATATAAATATCTCTCACTTATTTAAA", "cleaved RNA product abundance": 0.252}
{"sequence": "ACAGACGAAGGAGCCGCTAAGAAGTTATTAAGGGATGAATAATCCCCCAATATAAATATCTCTCACTTATTTAAA", "cleaved RNA product abundance": 0.342}
{"sequence": "ACAGACGAAGGAGCCGCTAAGAAGTTATTAAGGGATGAATAATCCCTAAATATAAATATCTCTCACTTATTTAAA", "cleaved RNA product abundance": 0.831}
{"sequence": "ACAGACGAAGGAGCCGCTAAGAAGTTATTAAGGGATGAATAATCCCTCAACATAAATATCTCTCACTTATTTAAA", "cleaved RNA product abundance": 0.291}
{"sequence": "ACAGACGAAGGAGCCGCTAAGAAGTTATTAAGGGATGAATAATCCCTCAAGATAAATATCTCTCACTTATTTAAA", "cleaved RNA product abundance": 0.322}
{"sequence": "ACAGACGAAGGAGCCGCTAAGAAGTTATTAAGGGATGAATAATCCCTCAATATAAATATCTCTCACTTATTTAAA", "cleaved RNA product abundance": 0.985}
{"sequence": "ACAGACGAAGGAGCCGCTAAGAAGTTATTAAGGGATGAATAATCCCTCAATGTAAATATCTCTCACTTATTTAAA", "cleaved RNA product abundance": 0.0932}
{"sequence": "ACAGACGAAGGAGCCGCTAAGAAGTTATTAAGGGATGAATAATCCCTCTATATAAATATCTCTCACTTATTTAAA", "cleaved RNA product abundance": 0.509}
{"sequence": "ACAGACGAAGGAGCCGCTAAGAAGTTATTAAGGGATGAATAATCCTTCAATATAAATATCTCTCACTTATTTAAA", "cleaved RNA product abundance": 0.597}
{"sequence": "ACAGACGAAGGAGCCGCTAAGAAGTTATTAAGGGATGAATAATCTCTCAATATAAATATCTCTCACTTATTTAAA", "cleaved RNA product abundance": 1.12}
{"sequence": "ACAGACGAAGGAGCCGCTAAGAAGTTATTAAGGGATGAATAATGCCTCAATATAAATATCTCTCACTTATTTAAA", "cleaved RNA product abundance": 0.154}
{"sequence": "ACAGACGAAGGAGCCGCTAAGAAGTTATTAAGGGATGAATATTCCCTCAATATAAATATCTCTCACTTATTTAAA", "cleaved RNA product abundance": 0.667}
{"sequence": "ACAGACGAAGGAGCCGCTAAGAAGTTATTAAGGGATGAATTATCCCTCAATATAAATATCTCTCACTTATTTAAA", "cleaved RNA product abundance": 0.874}
{"sequence": "ACAGACGAAGGAGCCGCTAAGAAGTTATTAAGGGATGACTAATCCCTCAATATAAATATCTCTCACTTATTTAAA", "cleaved RNA product abundance": 0.542}
{"sequence": "ACAGACGAAGGAGCCGCTAAGAAGTTATTAAGGGATGCATAATCCCTCAATATAAATATCTCTCACTTATTTAAA", "cleaved RNA product abundance": 0.814}
{"sequence": "ACAGACGAAGGAGCCGCTAAGAAGTTATTAAGGGATTAATAATCCCTCAATATAAATATCTCTCACTTATTTAAA", "cleaved RNA product abundance": 1.02}
{"sequence": "ACAGACGAAGGAGCCGCTAAGAAGTTATTAAGGGTTGAATAATCCCTCAATATAAATATCTCTCACTTATTTAAA", "cleaved RNA product abundance": 0.377}
{"sequence": "ACAGACGAAGGAGCCGCTAAGAAGTTATTAAGGTATAAATAATCCCTCAATATAAATATCTCTCACTTATTTAAA", "cleaved RNA product abundance": 0.0621}
{"sequence": "ACAGACGAAGGAGCCGCTAAGAAGTTATTAAGGTATGAATAATCCCTCAATATAAATATCTCTCACTTATTTAAA", "cleaved RNA product abundance": 0.296}
{"sequence": "ACAGACGAAGGAGCCGCTAAGAAGTTATTAAGTGATGAATAATCCCTCAATATAAATATCTCTCACTTATTTAAA", "cleaved RNA product abundance": 0.167}
{"sequence": "ACAGACGAAGGAGCCGCTAAGAAGTTATTAATGGATGAATAATCCCTCAATATAAATATCTCTCACTTATTTAAA", "cleaved RNA product abundance": 0.172}
{"sequence": "ACAGACGAAGGAGCCGCTAAGAAGTTCTTAAGGGATGAATAATCCCTCAATACAAATATCTCTCACTTATTTAAA", "cleaved RNA product abundance": 0.0591}
{"sequence": "ACAGACGAAGGAGCCGCTAAGAAGTTGTTAAGGGATGAATAATCCCTCAATATAAATATCTCTCACTTATTTAAA", "cleaved RNA product abundance": 0.503}
{"sequence": "ACAGACGAAGGAGCCGCTAAGAATTTATTAAGGGATGAATAATCCCTCAATATAAATATCTCTCACTTATTTAAA", "cleaved RNA product abundance": 0.468}
{"sequence": "ACAGACGAAGGAGCCGCTAAGATGTTATTAAGGGATGAATAATCCCTCAATATAAATATCTCTCACTTATTTAAA", "cleaved RNA product abundance": 1.18}
{"sequence": "ACAGACGAAGGAGCCGCTAAGTAGTTATTAAGGGATGAATAATCCCTCAATATAAATATCTCTCACTTATTTAAA", "cleaved RNA product abundance": 1.27}
{"sequence": "ACAGACGAAGGAGCCGCTACGAAGTTATTAAGGGATGAATAATCTCTCAATATAAATATCTCTCACTTATTTAAA", "cleaved RNA product abundance": 0.816}
{"sequence": "ACAGACGAAGGAGCCGCTATGAAGTTATTAAGGGATGAATAATCCCTCAATATAAATATCTCTCACTTATTTAAA", "cleaved RNA product abundance": 0.952}
{"tested_on": "Bacillus subtilis", "test": "cleaved RNA product abundance (RNA/gDNA barcode ratio) relative to median wild-type variant (ratio to wild type); higher = more accumulation of the downstream cleavage product", "settings": "experiment (reporter, strain, medium): exp 6: tetM reporter, strain 168; cleavage site: cggR-gapA (positions -7 to +36 mutated)", "how_it_was_run": "as §1"}
{"sequence": "ACAGACGAAGGAGCCGCTAAGAAGTTATTAAGGGATGAATAATCCCTCAATATAAATATCTCTCACTTATTTAAA", "cleaved RNA product abundance": 1.03}
